Source: US20240026036A1 (AstraZeneca / MedImmune, published 2024)

Tests used:
[1] = target: Recombinant human NGF (Sigma) (human, UniProt P01138 122-241); assay: cell-based or functional assay
[2] = target: Recombinant mouse NGF (R&D Systems) (mouse, UniProt P01139 122-241); assay: cell-based or functional assay
Recombinant mouse NGF (R&D Systems), sequence (P01139 122-241 limits assumed): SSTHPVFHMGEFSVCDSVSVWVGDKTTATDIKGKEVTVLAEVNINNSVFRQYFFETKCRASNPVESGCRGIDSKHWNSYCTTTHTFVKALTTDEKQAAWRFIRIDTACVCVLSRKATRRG

Recombinant human NGF (Sigma), sequence (P01138 122-241 limits assumed): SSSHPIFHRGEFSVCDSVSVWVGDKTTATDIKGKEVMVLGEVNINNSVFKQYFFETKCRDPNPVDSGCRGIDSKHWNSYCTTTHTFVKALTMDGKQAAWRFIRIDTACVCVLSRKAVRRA

B1: MEDI-578 IgG1 TM YTE (antibody, V domains shown)
VH: QVQLVQSGAEVKKPGSSVKVSCKASGGTFSTYGISWVRQAPGQGLEWMGGIIPIFDTGNSAQSFQGRVTITADESTSTAYMELSSLRSEDTAVYYCARSSRIYDLNPSLTAYYDMDVWGQGTMVTVSS
VL: QSVLTQPPSVSAAPGQKVTISCSGSSSNIGNNYVSWYQQLPGTAPKLLIYDNNKRPSGIPDRFSGSKSGTSATLGITGLQTGDEADYYCGTWDSSLSAWVFGGGTKLTVL
**Q.** B1 was tested. Which “IC50 (read off the curve)” value [1] did it give?
**A.** Its value is ~0.8 nM.

**Q.** And the “IC50 (read off the curve)” value [2]?
**A.** The value was ~0.3 nM.
